In paper PMC10772121 (Scientific Reports, 2024):
Several values for one entry are separate records, joined by “and”; a condition that tells them apart may be missing. Equal values may be shown once.

B1: lirilumab (IgG1) (antibody, V domains shown)
VH: QVQLVQSGAEVKKPGSSVKVSCKASGGTFSFYAISWVRQAPGQGLEWMGGFIPIFGAANYAQKFQGRVTITADESTSTAYMELSSLRSDDTAVYYCARIPSGSYYYDYDMDVWGQGTTVTVSS
VL: EIVLTQSPVTLSLSPGERATLSCRASQSVSSYLAWYQQKPGQAPRLLIYDASNRATGIPARFSGSGSGTDFTLTISSLEPEDFAVYYCQQRSNWMYTFGQGTKLEIK
B2: lirilumab (IgG1) (antibody, V domains shown)
VH: B1 VH
VL: B1 VL

Columns and labels:
Settings in all cases: both partners purified
[1] = target: T1, KIR2DL3 D47N ectodomain (Homo sapiens, UniProt P43628-1, D47N); assay: BLI; lirilumab (IgG1) loaded on AHC biosensors, KIR2DL3 D47N as analyte (peak concentration 500 nM); Octet RED384, 25 °C, 20 mM MOPS pH 7.5, 150 mM NaCl, 0.1% BSA, 0.02% Tween-20; steady state binding model because the 1:1 model fitted poorly; single replicates
T1 construct: also called KIR2DL3 D47N (293F); Var6; source: HEK 293F supernatant, purified (EDTA-resistant Ni-NTA, size exclusion chromatography)
T1 sequence (P43628 22-245 D68N): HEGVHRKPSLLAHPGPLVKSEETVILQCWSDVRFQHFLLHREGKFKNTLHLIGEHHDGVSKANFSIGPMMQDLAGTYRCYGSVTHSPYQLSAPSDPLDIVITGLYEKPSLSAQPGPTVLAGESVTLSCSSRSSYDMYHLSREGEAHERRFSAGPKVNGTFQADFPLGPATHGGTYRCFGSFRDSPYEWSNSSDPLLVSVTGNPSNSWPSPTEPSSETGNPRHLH

[2] = target: T2, KIR2DL3 ectodomain (Homo sapiens, UniProt P43628-1); assay: BLI; lirilumab (IgG1) loaded on AHC (anti-human IgG) biosensors, KIR protein as analyte (two-fold dilutions from 250 nM); Octet RED384, 25 °C, 20 mM MOPS pH 7.5, 150 mM NaCl, 0.1% BSA, 0.02% Tween-20; global 1:1 binding model, at least 4 curves; single replicates
T2 construct: also called wild-type KIR2DL3; KIR2DL3 (293F); source: HEK 293F supernatant, purified (EDTA-resistant Ni-NTA, size exclusion chromatography)
T2 sequence (P43628 22-245): as the sequence (P43628 22-245 D68N) above, with N47D counted along it

[3] = target: T3, KIR2DL1 (Sino Biological 13,145-H08H) (Homo sapiens; allele of bought protein …, UniProt P43626-1); assay: as above
T3 construct: human KIR2DL1, commercially sourced recombinant protein; The catalogue product is recalled to be the extracellular domain with a C-terminal His tag; also called KIR2DL1 (293, Sino Biological); source: bought: Sino Biological 13,145-H08H (293)
T3 sequence (P43626 22-245): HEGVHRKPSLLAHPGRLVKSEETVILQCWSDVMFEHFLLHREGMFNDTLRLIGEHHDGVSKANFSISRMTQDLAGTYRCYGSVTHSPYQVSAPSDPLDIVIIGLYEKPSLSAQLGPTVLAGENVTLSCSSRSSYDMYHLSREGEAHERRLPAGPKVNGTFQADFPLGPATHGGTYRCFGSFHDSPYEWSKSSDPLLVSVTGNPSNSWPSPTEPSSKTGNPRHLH

[4] = target: T4, KIR2DL3 F45Y ectodomain (Homo sapiens, UniProt P43628-1, F45Y); assay: as above
T4 construct: also called KIR2DL3 F45Y (293F); Var4; source: HEK 293F supernatant, purified (EDTA-resistant Ni-NTA, size exclusion chromatography)
T4 sequence (P43628 22-245 F66Y): as the sequence (P43628 22-245 D68N) above, with F45Y, N47D counted along it

[5] = target: T5, KIR2DL3 H50R ectodomain (Homo sapiens, UniProt P43628-1, H50R); assay: as above
T5 construct: also called KIR2DL3 H50R (293F); Var7; source: HEK 293F supernatant, purified (EDTA-resistant Ni-NTA, size exclusion chromatography)
T5 sequence (P43628 22-245 H71R): as the sequence (P43628 22-245 D68N) above, with N47D, H50R counted along it

[6] = target: T6, KIR2DL3 D47N (Homo sapiens, UniProt P43628-1, D47N); assay: BLI; lirilumab (IgG1) loaded on anti-human IgG (AHC) biosensors, KIR2DL3 D47N as analyte, two-fold dilutions from 500 nM; 25 °C; 20 mM MOPS pH 7.5, 150 mM NaCl, 0.1% BSA, 0.02% Tween-20; steady state equilibrium model (kinetic fit unsuccessful); average of 3 technical replicates
T6 construct: also called KIR2DL3 D47N variant; KIR2DL3 D47N mutant; source: HEK 293F, purified as the CHO-S protein (HisTrap FF)
T6 sequence (P43628 22-245 D68N): as the sequence (P43628 22-245 D68N) above

[7] = target: T7, Commercially sourced KIR2DL1 (Sino Biological 13,145-H08H) (Homo sapiens; allele of bought protein …, UniProt P43626-1); assay: BLI; lirilumab (IgG1) loaded on anti-human IgG (AHC) biosensors, KIR protein as analyte, 6 two-fold dilutions from 250 nM; 25 °C; 20 mM MOPS pH 7.5, 150 mM NaCl, 0.1% BSA, 0.02% Tween-20; global 1:1 fit; average of 3 technical replicates
T7 construct: KIR2DL1, commercially sourced recombinant protein; source: bought: Sino Biological
T7 sequence (P43626 22-245): as the sequence (P43626 22-245) above

[8] = target: T8, wild-type KIR2DL3 ectodomain (HEK 293F) (Homo sapiens, UniProt P43628-1); assay: as above
T8 construct: Same construct as m3 but expressed in HEK 293F cells for BLI; source: HEK 293F, purified as the CHO-S protein (HisTrap FF)
T8 sequence (P43628 22-245): as the sequence (P43628 22-245 D68N) above, with N47D counted along it

[9] = target: T9, KIR2DL3 F45Y (Homo sapiens, UniProt P43628-1, F45Y); assay: as above
T9 construct: also called KIR2DL3 F45Y variant; source: HEK 293F, purified as the CHO-S protein (HisTrap FF)
T9 sequence (P43628 22-245 F66Y): as the sequence (P43628 22-245 D68N) above, with F45Y, N47D counted along it

[10] = target: T10, KIR2DL3 H50R (Homo sapiens, UniProt P43628-1, H50R); assay: as above
T10 construct: also called KIR2DL3 H50R variant; source: HEK 293F, purified as the CHO-S protein (HisTrap FF)
T10 sequence (P43628 22-245 H71R): as the sequence (P43628 22-245 D68N) above, with N47D, H50R counted along it

Binder	Kd [1]	Kd [2]	koff [2]	kon [2]	Kd [3]	koff [3]	kon [3]	Kd [4]	koff [4]	kon [4]	Kd [5]	koff [5]	kon [5]	Kd [6] [µM]	Kd [7] [µM]	Kd [8] [µM]	Kd [9] [µM]	Kd [10] [µM]
B1	1.4 µM and 1.9 µM	0.00164 µM and 0.00283 µM and 0.00378 µM	0.000366 s⁻¹ and 0.000622 s⁻¹ and 0.000892 s⁻¹	224000 M⁻¹ s⁻¹ and 220000 M⁻¹ s⁻¹ and 236000 M⁻¹ s⁻¹	0.0115 µM and 0.0096 µM and 0.0088 µM	0.000954 s⁻¹ and 0.000995 s⁻¹ and 0.000947 s⁻¹	83200 M⁻¹ s⁻¹ and 104000 M⁻¹ s⁻¹ and 107000 M⁻¹ s⁻¹	0.0103 µM and 0.0108 µM and 0.0085 µM	0.00125 s⁻¹ and 0.00155 s⁻¹ and 0.00145 s⁻¹	122000 M⁻¹ s⁻¹ and 144000 M⁻¹ s⁻¹ and 170000 M⁻¹ s⁻¹	0.00798 µM and 0.0106 µM and 0.015 µM	0.00195 s⁻¹ and 0.00244 s⁻¹ and 0.00317 s⁻¹	244000 M⁻¹ s⁻¹ and 231000 M⁻¹ s⁻¹ and 212000 M⁻¹ s⁻¹	–	–	–	–	–
B2	–	–	–	–	–	–	–	–	–	–	–	–	–	1.65	0.01	0.0028	0.0099	0.0112
